# Results reported in patent publication US20200369727A1, “COMPOSITION AND METHOD FOR TREATING A PATIENT HAVING LIVER CIRRHOSIS” (priority 2019, published 2020).
# Target: T1, NS3 of SEQ ID NO: 3 (HCV NS3 genotype 4a) (Hepatitis C virus genotype 4a, UniProt O39929)
# T1 construct: T7 tag (N); 6-His tag (C); made in house; host or cells: E. coli Rosette (DE3) pLysS
# Experiment: Differential static light scattering (DSLS), aggregation temperature of NS3 with peptide
# Type: binding
# Conditions: NS3 of SEQ ID NO: 3 with peptide in 1:2 ratio, room temperature, two hours, shaking
# Experimental: The binding of SEQ ID NO: 4 and its variants of SEQ ID NO: 6-20 to the NS3 of SEQ ID NO: 3 were determined by differential static light scattering method using Stargazer-2™ (Harbinger Biotechnology and Engineering Corporation, Toronto, Canada). The method assesses protein stability by monitoring aggregate formation upon gradual increase of temperatures. NS3 domain of SEQ ID NO: 3 stability upon binding to NS4A of SEQ ID NO: 4 was measured by monitoring denatured protein aggregation upon increasing temperature from 25 to 85° C. in 0.5° C. increments at 600 nm. […] The mixture and control were incubated at room temperature with gentle shaking for specified time. […]. Afterwards, 10 μL of the mixture was transferred into a clear bottom Nunc 384-well plate and covered by 10 μL paraffin oil to minimize evaporation. Protein aggregation was monitored by tracking the change in scattered light that was detected by a CCD camera. Snapshot images of the plate were taken every 0.5° C. The pixel intensities in a preselected region of each well were integrated using image analysis software to generate a value representative of the total amount of scattered light in that region. […] Aggregation was monitored and analyzed to assess the effect of NS4A of SEQ ID NO: 4 and its synthetic analogues of SEQ ID NO: 6-20 on the stability of the NS3 as an indicator of binding. […]
sequence,measurement,value
"KKGSVVIVGRIVLSGKK [SEQ ID NO: 4, reference compound]","ΔTagg (Tagg shift, aggregation temperature)",2.83 °C
